Columns and labels:
[1] = tested on: NIH-3T3 mouse embryonic fibroblast cells; assay: IL-6 secretion by NIH-3T3 fibroblasts (Elisa); format: cell-based; conditions: NIH-3T3 cells, 50 ng/ml, vs control / IL-17 group
Protocol: FIG. 2: NIH-3T3 mouse embryonic fibroblast cells were treated with IL-17 vehicle (Ctrl), IL-17 (50 ng/ml) alone (IL-17) or peptide (FM-0410) (50 ng/ml) and supernatants were assayed by Elisa for IL-6. Data were expressed as pg/ml and presented as means±S.D. of three separate independent experiments. Statistical analysis was conducted by one-way ANOVA followed by Bonferroni's for multiple comparisons. ^##P≤0.01, ^###P≤0.005 vs Ctrl group; *P≤0.05 vs IL-17 group. In order to assess the biological activity of synthesized peptide, we carried out in vitro studies using NIH-3T3 mouse embryonic fibroblast cells. […] With this in vitro system we measured IL-17 activity by its ability to induce IL-6 secretion by NIH-3T3 mouse embryonic fibroblast cells. Methods: The levels of IL-6 in the cellular and air pouch inflammatory supernatants at 24 h were measured using commercially available enzyme-linked immunosorbent assay kit (ELISA kit, R&D System, Milan, Italy) according to the manufacturer instructions. […] The addition of 100 μl of the substrate and stop solution represented the last steps before the reading of absorbance (measured at 450 nm) on a microplate reader. Antigen levels in the samples were determined using a standard curve and expressed as pg/ml. […]

neutrophils = assay: Transwell chemotaxis assay; format: cell-based, human
Protocol: The cells migration after IL-17 (10-500 ng/ml), FM-0410 (10-500 ng/ml) or N-Formylmethionine-leucyl-phenylalanine (fmlp; 10^−6 M) treatment was quantified using CountBright™ Absolute Counting Beads. Data were presented as means±S.D. of n=3 healthy donors. Statistical analysis was conducted by one-way ANOVA followed by Bonferroni's for multiple comparisons. ^#P≤0.05, ^##P≤0.01, ^###P≤0.001, ^####P≤0.0001 vs Ctrl group; ^+P≤0.05 vs IL-17. Neutrophil isolation: Blood was taken according to local research ethics committee approval (QMERC2014/61). Informed consent was provided according to the Declaration of Helsinki. All blood samples were collected on the day of experiments from healthy donors and immediately used. Each condition has 3 biological replicates (3 different donors). Neutrophils were isolated using a double density histopaque gradient and hypotonic lysis as described previously. Transwell chemotaxis assay: Chemotaxis was assessed using a transwell assay. […] After 2 hours at 37° C., neutrophils were collected from the bottom wells and quantified by flow cytometry using CountBright™ Absolute Counting Beads (Thermofisher, Rugby, UK) as previously described.

IL-17RA = IL-17RA (Homo sapiens, UniProt Q96F46); conditions: cited from earlier work

B1: IL-17: recombinant mouse IL-17 purchased from R&D System; full-length cytokine used as comparator and stimulus (protein, UniProt Q62386 26-158, looked up)
Interleukin-17A: AAIIPQSSACPNTEAKDFLQNVKVNLKVFNSLGAKVSSRRPSDYLNRSTSPWTLHRNEDPDRYPSVIWEAQCRHQRCVNAEGKLDHHMNSVLIQQEILVLKREPESCPFTFRVEKMLVGVGCTCVASIVRQAA
IL-6 release [1]: significant increase in IL-6 release compared to control group | chemotactic activity compared to positive control fmlp (10^−6 M) (neutrophils; 500 ng/ml): almost similar to positive control fmlp | chemotactic effect on neutrophils (neutrophils; 10-500 ng/ml, vs Control group): concentration-dependent chemotactic effect | affinity of IL-17RA for IL-17A compared to IL-17F (IL-17RA): ~100 fold

Source: US20260035452A1 (THE UNIVERSITY OF BIRMINGHAM, priority 2022, published 2026)
